B1: Twister Ribozyme (parent)
chain: AACACUGCCAAUGCCGGUCCCAAGCCCGGAUAAAAGUGGAGGGGGCGG

Variants of B1 are the subject of this data set. Put plainly: self-cleavage, relative activity (ratio to wild type); higher = more cleavage; co-transcriptional.
AACACUGCCUAUGCCGUUCCCAAGCCCGGAUAAAAGUGGAGGGGGCGG [A10U G17U]: the self-cleavage came out at 0.302.
Next, AACACUGCCAAUGCCGGUCCCAAGCCCGGAUAAAAGUCGAGGGGGCUG [G38C G47U]: 0.76.
Next, AACACUGCCAAUGCCGGUCUCAAGCCCGGAUAAACGUGGAGGGGGCGG [C20U A35C]: 0.881; AACACUCCCAAAGCCGGUCCCAAGCCCGGAUAAAAGUGGAGGGGGCGG [G7C U12A]: 0.0478; AACACUGCCAAUGCCGGUCCCAAGCCCGCAUUAAAGUGGAGGGGGCGG [G29C A32U]: 0.443.
The same measure for AACACUGCCAAUGCCGGUCCCAAGCCCGGAUAAAAGUGGAUUGGGCGG [G41U G42U]: 0.125.
On to AACACUGCCAAUGCCGGUCCCAAGCCUGGAUAUAAGUGGAGGGGGCGG [C27U A33U], for which the self-cleavage was 0.709.
The same measure for AACACUGCCAAUGCCUGUCCCAAGCCCGGAUAAAAGUAGAGGGGGCGG [G16U G38A]: 0.935; for AACACUGCCAAUGCCGGUCCUAAGCCCGGAUAAAUGUGGAGGGGGCGG [C21U A35U]: 0.115.
Next, AACACUUCCAAUGCCGGUCCCAAGGCCGGAUAAAAGUGGAGGGGGCGG [G7U C25G]: 0.401; AACACUGCCAAUGUCGGUCUCAAGCCCGGAUAAAAGUGGAGGGGGCGG [C14U C20U]: 0.942; AACACUGCCAAUGCCGGUCCCAAGCCCGGAUAAAAGGGGAGCGGGCGG [U37G G42C]: 0.103.
Next, AAAACUGCCAAUGCGGGUCCCAAGCCCGGAUAAAAGUGGAGGGGGCGG [C3A C15G]: 0.0656; AACACUGCCAAUGCCGGUCCCAAGCCGGGAUAAAAUUGGAGGGGGCGG [C27G G36U]: 0.0875; AACACUGCCAAUGCCGGCCCCAAGCCGGGAUAAAAGUGGAGGGGGCGG [U18C C27G]: 0.0754.
Consider AACACUGCCAAUGCCGGUCUCAAGCCCGUAUAAAAGUGGAGGGGGCGG [C20U G29U], for which the self-cleavage is 0.921.
Next, AACUCUGCCAAUGCCGGUCCCAAGCCCUGAUAAAAGUGGAGGGGGCGG [A4U G28U]: 0.116; AACAGUGCCAAUGCCGGUACCAAGCCCGGAUAAAAGUGGAGGGGGCGG [C5G C19A]: 0.0784; AACACUGCCAAUGCCGGUCCCAAGCCCUGAUAAAAGUAGAGGGGGCGG [G28U G38A]: 0.763.
As for AACACUGCCAAUGCCGGUCCCAAGCCCGGAUAAAAGUGUAGGGGGCCG [G39U G47C], the self-cleavage stood at 0.16.
Next, AACACUGCCAAUGCCGGUCCCAAGCCCGGACAAAAGUGGGGGGGGCGG [U31C A40G]: 0.0669; GACACUGCCAAUGCCGGUCCCAAGCCCGGAUAAAAGUGGAGGGGCCGG [A1G G45C]: 0.254; AACACUGCUAAUGCCGGUCCCAAGCACGGAUAAAAGUGGAGGGGGCGG [C9U C26A]: 0.0658.
The same measure for AACACUGCCAAUGCCGGGCCCAAGCCCGGAUAAAAAUGGAGGGGGCGG [U18G G36A]: 0.0894.
Next, AACACUGCCAAUGCCGGUCCCAAGCCAGGAUAAAAGUGGAGGGGGCAG [C27A G47A]: 0.238; AACACUGCCAAUGCCGGUCCCAUGCCUGGAUAAAAGUGGAGGGGGCGG [A23U C27U]: 0.305; AACACCGCCAAUGCCGGUCCCAAGCCGGGAUAAAAGUGGAGGGGGCGG [U6C C27G]: 0.0742.
As to AACAUUGCCAAUGCCGGUCCCAAGCCCGGAUAACAGUGGAGGGGGCGG [C5U A34C], the self-cleavage was 0.166.
With AACACUGCCAAUGCCGAUCCCAAUCCCGGAUAAAAGUGGAGGGGGCGG [G17A G24U], the self-cleavage stood at 0.0891.
For AACACUGCCAAUGCCGGACCCUAGCCCGGAUAAAAGUGGAGGGGGCGG [U18A A22U], the self-cleavage is 0.17.
Next, AACACUGCCAAUGCCGGUCCCAAGACCGGAUAAAAGUGGAGGGGUCGG [C25A G45U]: 0.0929; AACACUGCCAAUGCCGGUCUCAAGCCCGGAUAAAAGUGGGGGGGGCGG [C20U A40G]: 0.149.
Next, AACACUGCCAAUGCCGGUCCCAAGCCGGGCUAAAAGUGGAGGGGGCGG [C27G A30C]: 0.105; AACACUGCCAAUGCCGGUCCCAAGACCGGAUAAAAGUGGAGGAGGCGG [C25A G43A]: 0.0661; AACACUGCCAGUGCCGGUCCCAAGCCCGGAUAAAAGUGGAGGCGGCGG [A11G G43C]: 0.169.
The same measure for AACACUGCCACUGCCGGUCCCAAGCCCGGAUAAAAGUGGAGGGAGCGG [A11C G44A]: 0.955; for AACACUGCCAAUGCCGGUCUCAAGCCCGGCUAAAAGUGGAGGGGGCGG [C20U A30C]: 0.533.
In the case of AACACUGCCAAUGCCGGUCCCAAACCCGGAUAAAAGUGGAGGGGCCGG [G24A G45C], the self-cleavage was found to be 0.0846.
Next, AACACUGUCAAUGCCGGUCCCAAGCCCGGAUAAACGUGGAGGGGGCGG [C8U A35C]: 0.547; AACACUGCCAAUGCCGGUCCCAAGCCCGGAUUAAAGUGGAGGGUGCGG [A32U G44U]: 0.885; AACACUGCCAAUUCCGGUCCCAAGCCCGGAUAUAAGUGGAGGGGGCGG [G13U A33U]: 0.403.
The same measure for AACACUGCCAAUGCCGGUCCCCAGCCCGGAUAAAAGUGAAGGGGGCGG [A22C G39A]: 0.238; for AACACUGCCCAUGCCGGUCCCAAGCCCGGACAAAAGUGGAGGGGGCGG [A10C U31C]: 0.834.
The same measure for AACACUGCCAAUGCCGGUCCCAAGCCAGGAUAAAAGUGGGGGGGGCGG [C27A A40G]: 0.145; for AACACUGCCAAUGCAGGUACCAAGCCCGGAUAAAAGUGGAGGGGGCGG [C15A C19A]: 0.0896; for AACACUGCCAAUGCGGGUCCCACGCCCGGAUAAAAGUGGAGGGGGCGG [C15G A23C]: 0.137.
Take AACACUGCCAAUGCCGGUCCCAAGCCCGGAUAAAAGUAGAGGGGGGGG [G38A C46G]: the self-cleavage was 0.966.
Next, AACACUGCCAAUGCCGGUCCCAAGGCCGGAUAAAAGGGGAGGGGGCGG [C25G U37G]: 0.104.
For the variant AACACUGCCAACGCCGGUCCCAAGCCCGGAUAAAAGUGGAGGGCGCGG [U12C G44C], the self-cleavage was 0.932.
For AACACUGCCAAUGCCGGUCCCAAGCCCGGAUAAAAUUGGAGAGGGCGG [G36U G42A], the self-cleavage is 0.123.
Next, AACACUGCCAAUGGCGGUCCCAAGCCCGGAUAAAAGUGGUGGGGGCGG [C14G A40U]: 0.0589.
Next, AAAACUGCCAAUGCCGGUGCCAAGCCCGGAUAAAAGUGGAGGGGGCGG [C3A C19G]: 0.0471.
Take AACGCUGCCAAUGGCGGUCCCAAGCCCGGAUAAAAGUGGAGGGGGCGG [A4G C14G]: the self-cleavage came to 0.276.
Next, AACACUGUCAAUGCCGGUCCCAAGUCCGGAUAAAAGUGGAGGGGGCGG [C8U C25U]: 0.195.
